Biological target: T1, hTIGIT-hFc (human, UniProt Q495A1 22-141)
T1 construct: also called antigen protein hTIGIT-hFc; human TIGIT recombinant protein carrying a human Fc tag; not shown: human Fc tag
T1 sequence (looked up): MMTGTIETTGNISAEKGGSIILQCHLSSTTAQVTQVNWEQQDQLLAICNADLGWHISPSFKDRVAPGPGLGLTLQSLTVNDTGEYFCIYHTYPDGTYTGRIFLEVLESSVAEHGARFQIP
Test: FACS blocking: hTIGIT-hFc bound on CHO-hCD112 cells, then antibody, APC anti-human IgG Fc; blocked partner CD112; unit as printed on the x axis, Log(uM); the method's top concentration of 20 µg/mL and the nM values of Fig. 5B speak for nM
Experimental: The CHO-engineered cell CHO-hCD112 cells recombinantly expressing full-length human CD112 were counted; centrifugated at 300 g for 5 min; resuspended with an FCM buffer; and cell density was adjusted to 4E+06 cell/mL for later use. […] According to an experimental design, in each well, 50 μL of the antigen protein and 50 μL of the cell (the volume of each cell added into a 96-well V-shaped plate being 2E+05 cell/well) were respectively added in the 96-well V-shaped plate; and incubation was performed in dark on ice for 30 min. Centrifugation (300 g/5 min) was performed; supernatant was discarded; 200 μL of the FCM buffer was added for washing once; centrifugation (300 g/5 min) was performed; and the supernatant was discarded. The antibody was added to the 96-well V-shaped plate (in 100 μL/well); and incubation was performed in dark on ice for 30 min. Centrifugation (300 g/5 min) was performed; supernatant was discarded; 200 μL of the FCM buffer was added for washing once; centrifugation (300 g/5 min) was performed; and the supernatant was discarded. Secondary antibodies (APC anti-human IgG Fc, 1:500 dilution) were added to the 96-well V-shaped plate (in 100 μL/well); and incubation was performed in dark on ice for 30 min. […]

- IC50: 2600 nM
B1: 14Tigit-1-1 mouse monoclonal antibody (antibody, V domains shown)
VH: DVQLQESGPGLVKPSQSLSLTCTVTGYSITSDYAWNWIRQFPGNKLEWMGYISYSGSTRSNPSLKSRISITRDTSKNQFFLQLNSMTAEDTATYYCGGWEVRNYYAMDYWGQGTSVTVSS
VL: DIVMTQSHKFMSTSVGDRVSITCKASQHVSTAVAWYQQKPGQSPKLLIYSASYRYTGVPDRFTGSGSGTDFTFTISSVQAEDLAVYYCQQHYNTPWTFGGGTKLEIKR
notes: Mouse monoclonal antibody from hybridoma
